Common to all, as to details: remark: other sources report otherwise
In experiment [1] the target is T1, HBV core protein of virion-derived mature capsids (Mat-C) (Hepatitis B virus), P03146.
T1 chain: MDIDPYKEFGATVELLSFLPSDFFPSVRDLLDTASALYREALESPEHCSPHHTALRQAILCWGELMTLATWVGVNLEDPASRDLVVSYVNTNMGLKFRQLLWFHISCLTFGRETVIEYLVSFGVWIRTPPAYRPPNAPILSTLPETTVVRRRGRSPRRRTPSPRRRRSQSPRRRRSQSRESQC
The experiment is described as follows: Nycodenz gradient ultracentrifugation; 50 ng P-Mat-C after transport reaction with 4×10^6 digitonin-permeabilized HuH-7 cells and rabbit reticulocyte lysate, lysate of the cells on the gradient; controls with WGA, cells treated with RNase A.

In experiment [2] the target is T1, HBV core protein of virion-derived …. The experiment is described as follows: Nycodenz gradient ultracentrifugation.
The target in experiment [3] is T2, HBV core protein of E. coli-derived "recombinant" capsids (rC) (Hepatitis B virus), P03146.
T2 chain: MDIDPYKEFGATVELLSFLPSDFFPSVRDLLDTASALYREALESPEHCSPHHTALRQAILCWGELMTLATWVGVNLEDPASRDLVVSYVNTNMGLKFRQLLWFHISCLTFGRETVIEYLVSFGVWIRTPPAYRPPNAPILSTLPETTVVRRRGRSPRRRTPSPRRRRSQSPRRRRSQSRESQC
The experiment is described as follows: Nycodenz gradient ultracentrifugation.

In PMC2727048 one finds percent of 32P core proteins in the particle fractions, percent of the radioactivity in the four major (capsid) fractions and percent of the radioactivity in the three major (capsid) fractions data, which are given here for two molecules.

B1: HBV core protein of virion-derived mature capsids (Mat-C), P03146 1-183 (natural protein)
chain: MDIDPYKEFGATVELLSFLPSDFFPSVRDLLDTASALYREALESPEHCSPHHTALRQAILCWGELMTLATWVGVNLEDPASRDLVVSYVNTNMGLKFRQLLWFHISCLTFGRETVIEYLVSFGVWIRTPPAYRPPNAPILSTLPETTVVRRRGRSPRRRTPSPRRRRSQSPRRRRSQSRESQC
B1 gave a percent of 32P core proteins in the particle fractions in experiment [1] of 99%. The percent of the radioactivity in the four major (capsid) fractions in experiment [2] came to 98%.

B2: HBV core protein of E. coli-derived "recombinant" capsids (rC), P03146 1-183 (natural protein)
chain: MDIDPYKEFGATVELLSFLPSDFFPSVRDLLDTASALYREALESPEHCSPHHTALRQAILCWGELMTLATWVGVNLEDPASRDLVVSYVNTNMGLKFRQLLWFHISCLTFGRETVIEYLVSFGVWIRTPPAYRPPNAPILSTLPETTVVRRRGRSPRRRTPSPRRRRSQSPRRRRSQSRESQC
Consider B2, for which the percent of the radioactivity in the three major (capsid) fractions in experiment [3] stood at 91%.
